Source: article PMC5430633, “Phosphorylation of the mitochondrial autophagy receptor Nix enhances its interaction with LC3 proteins” (Scientific Reports, 2017)

Target: LC3B (UniProt Q9GZQ8)
Assay: NMR titration of labelled LC3B
Details: reference: unphosphorylated peptide P0; sites S34,S35

Substance: Nix (from UniProt O60238) pS34 pS35 peptide P2
- KD: stronger; reference ~100
